Results: article PMC3342813 (2011)

Columns and labels:
BT2127 = biological target: T1, BT2127 (Bacteroides thetaiotaomicron, UniProt Q8A5V9); assay: steady-state competitive inhibition of pyrophosphate hydrolysis; assay type: biochemical
T1 sequence (Q8A5V9 1-224): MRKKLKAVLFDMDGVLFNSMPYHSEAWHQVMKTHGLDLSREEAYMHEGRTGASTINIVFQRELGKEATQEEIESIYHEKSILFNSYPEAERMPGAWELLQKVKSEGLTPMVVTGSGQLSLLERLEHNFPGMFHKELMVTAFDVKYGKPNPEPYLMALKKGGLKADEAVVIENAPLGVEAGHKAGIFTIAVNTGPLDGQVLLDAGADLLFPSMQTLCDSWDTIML

purified protein [1] = substrate: O=c1ccn([C@@H]2O[C@H](COP(=O)(O)O)[C@@H](O)[C@H]2O)c(=O)[nH]1; assay: purified protein; settings: Mg2+; pH 7.5; 25.0 °C
purified protein [2] = substrate: O=[N+]([O-])c1ccc(OP(=O)(O)O)cc1; assay: purified protein; settings: Mg2+; pH 7.5; 25.0 °C
purified protein [3] = substrate: O=P(O)(O)OCC(O)CO; assay: purified protein; settings: Mg2+; pH 7.5; 25.0 °C

Molecule: O=P(O)(O)NP(=O)(O)O [imidodiphosphate]
- Ki (BT2127): 13 ± 1 µM

B1: BT2127 (Bacteroides thetaiotaomicron VPI-5482) (protein)
chain: T1 sequence (Q8A5V9 1-224)
- Km (purified protein [1]): 2600 ± 400 µM
- kcat (purified protein [1]): 0.15 s⁻¹
- kcat/Km (purified protein [1]): 60 M⁻¹ s⁻¹
- Km (purified protein [2]): 50 ± 10 µM
- kcat (purified protein [2]): 0.0019 s⁻¹
- kcat/Km (purified protein [2]): 40 M⁻¹ s⁻¹
- Km (purified protein [3]): 4800 ± 300 µM
- kcat (purified protein [3]): 0.35 s⁻¹
- kcat/Km (purified protein [3]): 70 M⁻¹ s⁻¹
